Results taken from paper PMC7155755, “Binding of the Human 14-3-3 Isoforms to Distinct Sites in the Leucine-Rich Repeat Kinase 2” (Frontiers in Neuroscience, 2020).
Entries after “also recorded” stand apart in the source; their conditions may differ. Square brackets hold non-standard residues; d marks the D form. Ends that are not written are not given here. fluorescein = N-terminal fluorescein label; pS = N[C@@H](COP(=O)(O)O)C(=O)O

Legend:
[1] = molecular target: 14-3-3ε (UniProt P62258); experiment: fluorescence polarization direct binding; conditions: reference: unphosphorylated S1443/S1444 peptide; sites S1444
[2] = test system: all seven human 14-3-3 isoforms; experiment: Fluorescence polarization (FP) direct binding assay, statements over all isoforms; conditions: FP direct binding; all seven isoforms; fluorescein-labeled peptide 1 nM; FP buffer pH 7
Description: (§1) Human MBP-tagged 14-3-3 isoforms were expressed from pMAL2CX plasmids [[Kilisch et al. (2016)], [Yuan et al. (2003)]] in E. coli BL21DE3 cells. After induction with […] isopropyl-β-D-thiogalactoside, the protein was expressed for 4 h at room temperature. Cells were lysed in MBP-lysis buffer [50 mM Tris–HCl pH 7.5, 150 mM NaCl, 5 mM MgCl2, 1 mM PMSF, 1× cOmplete Protease Inhibitor EDTA-free (Roche)] using a French Pressure cell (FRENCH Press, Thermo, United States). Following centrifugation at 42,000 × g and 4°C for 30 min, the supernatant was transferred to a Maltose-agarose column (1.5 ml bed volume; New England Biolabs GmbH, Germany). Captured proteins were washed six times with 10 ml wash buffer (50 mM Tris–HCl pH 7.5, 150 mM NaCl, 5 mM MgCl2) prior to elution using wash buffer including 15 mM D-maltose. To remove the MBP tag, fusion proteins were incubated with Factor Xa (New England Biolabs GmbH, Germany), at a final concentration of 0.4 μg per 1 mg fusion protein for 24 h at RT following another 72 h at 4°C. Anion exchange chromatography was finally applied to separate residual MBP using a buffer gradient from 20 mM Tris pH 8 to 20 mM Tris pH 8 with 1 M NaCl. For this a RESOURCE Q column (GE Healthcare, United Kingdom) was utilized, employing an ÄKTApurifier (GE Healthcare, United Kingdom) or an NGC Quest Chromatography System (Bio-Rad Laboratories GmbH, Germany).
(§2) FP was used to determine binding affinities of different phosphorylated and non-phosphorylated peptides derived from LRRK2 sequences (Peps4LS GmbH, Germany) toward human 14-3-3 isoforms. Direct binding assays were performed and evaluated as previously described ([Muda et al., 2014]; [Manschwetus et al., 2019]). Briefly, both dilution series of 14-3-3 isoforms ranging from final concentrations of at least 5 μM down to picomolar concentrations and dilutions of the respective fluorescein-labeled peptide (final conc. 1 nM) were prepared in FP buffer (20 mM MOPS pH 7, 150 mM NaCl, 0.005% CHAPS). Subsequently, samples were mixed in 384-well microtiter plates as duplicates (BRAND plates, pureGrade, black, BRAND GmbH & Co. KG, Germany) in a 1:1 ratio and measured using a CLARIOstar plate reader (BMG LABTECH, Germany). Two protein preparations were utilized for at least two independent replications for all measurements while high affinity binding peptides were particularly measured with a minimum of three independent replications for statistical evaluation. Data was analyzed with GraphPad Prism 6.0 (GraphPad Software, San Diego, CA, United States) by plotting obtained FP signals (mPol) against the logarithmic 14-3-3 protein concentrations. Data points represent means ± standard error of mean (SEM) of duplicates. “Ctrl.” indicates the FP signal of fluorescein-labeled peptides without 14-3-3 protein. Sigmoidal dose-response fitting was performed to define KD-values.

[3] = molecular target: T1, human 14-3-3 isoform ϵ (Homo sapiens, UniProt P62258); experiment: Fluorescence polarization (FP) direct binding assay; conditions: fluorescein-labeled peptide 1 nM
T1 construct: MBP (cleaved yes); made in house; host or cells: E. coli BL21DE3
T1 sequence (P62258 1-255): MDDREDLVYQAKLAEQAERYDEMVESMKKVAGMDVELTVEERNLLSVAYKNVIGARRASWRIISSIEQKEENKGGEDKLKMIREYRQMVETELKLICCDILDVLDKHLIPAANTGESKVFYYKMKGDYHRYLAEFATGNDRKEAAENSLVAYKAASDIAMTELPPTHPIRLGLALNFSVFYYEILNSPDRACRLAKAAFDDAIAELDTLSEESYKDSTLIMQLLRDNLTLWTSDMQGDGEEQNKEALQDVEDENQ
Description: as §1, §2

[4] = molecular target: T2, human 14-3-3γ (Homo sapiens, UniProt P61981); experiment: as above; conditions: dilution series of 14-3-3γ (at least 5 μM down to pM), fluorescein-labeled peptide 1 nM, FP buffer pH 7
T2 construct: MBP (cleaved yes); made in house; host or cells: E. coli BL21DE3
T2 sequence (P61981 1-247): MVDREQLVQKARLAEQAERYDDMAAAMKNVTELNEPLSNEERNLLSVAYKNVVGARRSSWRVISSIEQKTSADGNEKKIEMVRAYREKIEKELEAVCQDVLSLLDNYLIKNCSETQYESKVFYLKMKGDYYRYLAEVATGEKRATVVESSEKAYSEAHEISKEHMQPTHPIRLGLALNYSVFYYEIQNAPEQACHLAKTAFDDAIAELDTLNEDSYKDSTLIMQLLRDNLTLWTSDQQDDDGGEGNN
Description: as §1, §2

[5] = molecular target: T3, human 14-3-3 isoform θ (Homo sapiens, UniProt P27348); experiment: as above; conditions: fluorescein-labeled peptide 1 nM
T3 construct: MBP (cleaved yes); made in house; host or cells: E. coli BL21DE3
Description: as §1, §2

[6] = molecular target: T4, human 14-3-3 isoform σ (Homo sapiens, UniProt P31947); experiment: as above; conditions: fluorescein-labeled peptide 1 nM
T4 construct: MBP (cleaved yes); made in house; host or cells: E. coli BL21DE3
T4 sequence (P31947 1-248): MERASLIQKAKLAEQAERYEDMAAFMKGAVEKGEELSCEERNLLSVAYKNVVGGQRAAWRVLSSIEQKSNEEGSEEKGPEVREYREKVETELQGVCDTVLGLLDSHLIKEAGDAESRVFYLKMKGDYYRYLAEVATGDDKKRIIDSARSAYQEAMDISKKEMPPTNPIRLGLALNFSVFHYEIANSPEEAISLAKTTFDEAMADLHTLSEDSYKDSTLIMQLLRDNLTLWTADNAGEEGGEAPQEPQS
Description: as §1, §2

[7] = molecular target: T5, human 14-3-3 isoform η (Homo sapiens, UniProt Q04917); experiment: as above; conditions: fluorescein-labeled peptide 1 nM
T5 construct: MBP (cleaved yes); made in house; host or cells: E. coli BL21DE3
Description: as §1, §2

[8] = molecular target: T6, human 14-3-3 isoform ε (recombinant, MBP tag removed) (human, UniProt P62258 1-255); experiment: fluorescence polarisation; direct binding; dilution series of 14-3-3 isoform (at least 5 μM down to picomolar) mixed with 1 nM fluorescein-labelled peptide; 20 mM MOPS pH 7, 150 mM NaCl, 0.005% CHAPS; 384-well plates; conditions: both partners purified
T6 construct: 14-3-3 epsilon, human; Expressed from pMAL2CX plasmids; also called 14-3-3ε; source: E. coli BL21DE3, purified (maltose-agarose, Factor Xa, anion exchange)
T6 sequence (looked up): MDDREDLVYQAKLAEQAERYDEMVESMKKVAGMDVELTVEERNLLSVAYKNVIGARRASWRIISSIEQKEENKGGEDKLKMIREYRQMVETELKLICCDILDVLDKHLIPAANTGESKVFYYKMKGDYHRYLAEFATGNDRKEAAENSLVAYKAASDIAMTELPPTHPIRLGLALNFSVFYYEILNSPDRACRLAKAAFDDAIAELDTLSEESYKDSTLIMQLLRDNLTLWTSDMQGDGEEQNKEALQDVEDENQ

[9] = molecular target: T7, human 14-3-3 isoform ζ (recombinant, MBP tag removed) (human, UniProt P63104 1-245); experiment: as above; conditions: both partners purified
T7 construct: 14-3-3 zeta, human; Expressed from pMAL2CX plasmids; also called 14-3-3ζ; source: E. coli BL21DE3, purified (maltose-agarose, Factor Xa, anion exchange)
T7 sequence (looked up): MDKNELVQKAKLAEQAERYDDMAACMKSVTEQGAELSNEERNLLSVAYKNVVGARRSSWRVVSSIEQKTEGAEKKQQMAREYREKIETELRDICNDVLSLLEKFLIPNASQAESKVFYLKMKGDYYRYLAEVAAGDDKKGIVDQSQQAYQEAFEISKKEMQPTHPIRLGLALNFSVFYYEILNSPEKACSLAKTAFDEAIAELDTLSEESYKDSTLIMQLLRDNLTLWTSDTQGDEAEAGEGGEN

[10] = molecular target: T8, human 14-3-3 isoform σ (recombinant, MBP tag removed) (human, UniProt P31947 1-248); experiment: as above; conditions: both partners purified
T8 construct: 14-3-3 sigma, human; Expressed from pMAL2CX plasmids; also called 14-3-3σ; source: E. coli BL21DE3, purified (maltose-agarose, Factor Xa, anion exchange)
T8 sequence (looked up): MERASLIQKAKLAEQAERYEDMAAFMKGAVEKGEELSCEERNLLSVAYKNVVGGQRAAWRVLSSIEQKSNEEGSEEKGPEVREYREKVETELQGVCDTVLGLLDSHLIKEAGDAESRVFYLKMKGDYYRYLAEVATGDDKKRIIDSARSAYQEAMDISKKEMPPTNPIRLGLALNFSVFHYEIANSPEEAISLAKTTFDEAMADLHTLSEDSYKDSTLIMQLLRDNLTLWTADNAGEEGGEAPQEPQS

[11] = molecular target: T9, human 14-3-3 isoform η (recombinant, MBP tag removed) (human, UniProt Q04917 1-246); experiment: as above; conditions: both partners purified
T9 construct: 14-3-3 eta, human; Expressed from pMAL2CX plasmids; also called 14-3-3η; source: E. coli BL21DE3, purified (maltose-agarose, Factor Xa, anion exchange)
T9 sequence (looked up): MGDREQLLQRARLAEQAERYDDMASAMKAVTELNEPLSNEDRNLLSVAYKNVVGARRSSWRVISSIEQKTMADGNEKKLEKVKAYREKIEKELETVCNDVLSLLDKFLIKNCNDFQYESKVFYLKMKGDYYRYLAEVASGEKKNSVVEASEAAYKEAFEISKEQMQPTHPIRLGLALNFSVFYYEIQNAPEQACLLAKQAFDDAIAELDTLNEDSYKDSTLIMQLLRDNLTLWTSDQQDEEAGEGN

[12] = molecular target: T10, human 14-3-3 isoform β (recombinant, MBP tag removed) (human, UniProt P31946 1-246); experiment: as above; conditions: both partners purified
T10 construct: 14-3-3 beta, human; Expressed from pMAL2CX plasmids; also called 14-3-3β; source: E. coli BL21DE3, purified (maltose-agarose, Factor Xa, anion exchange)
T10 sequence (looked up): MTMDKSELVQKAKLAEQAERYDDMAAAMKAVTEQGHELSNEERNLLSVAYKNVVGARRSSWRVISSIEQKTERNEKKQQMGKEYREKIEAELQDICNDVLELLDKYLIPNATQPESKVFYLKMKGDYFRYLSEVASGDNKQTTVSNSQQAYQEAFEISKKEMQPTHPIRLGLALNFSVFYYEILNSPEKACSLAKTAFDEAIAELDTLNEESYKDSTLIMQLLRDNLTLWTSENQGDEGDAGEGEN

[13] = molecular target: T11, human 14-3-3 isoform θ (recombinant, MBP tag removed) (human, UniProt P27348 1-245); experiment: as above; conditions: both partners purified
T11 construct: 14-3-3 theta, human; Expressed from pMAL2CX plasmids; also called 14-3-3θ; source: E. coli BL21DE3, purified (maltose-agarose, Factor Xa, anion exchange)
T11 sequence (looked up): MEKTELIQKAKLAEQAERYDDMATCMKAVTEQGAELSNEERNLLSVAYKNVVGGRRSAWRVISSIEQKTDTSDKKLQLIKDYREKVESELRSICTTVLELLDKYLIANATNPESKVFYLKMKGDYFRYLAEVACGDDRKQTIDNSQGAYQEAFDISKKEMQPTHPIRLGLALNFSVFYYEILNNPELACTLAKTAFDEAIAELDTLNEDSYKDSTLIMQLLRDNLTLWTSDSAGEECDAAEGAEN

“LRRK2 (leucine-rich repeat kinase 2) (from UniProt Q5S007) pS1444 peptide” was tested, and the KD [1] was “gained; reference no binding detected”.

For “SFLVKKKSNpSISVGEFYRD [pS910, fluorescein-labeled LRRK2-derived phosphopeptide covering pS910]”, the “Binding to the human 14-3-3 isoforms, in words” value [2] was “micromolar affinities for the 14-3-3 isoforms except σ and ϵ; also recorded: low affinity”, the “Binding to 14-3-3 isoform ϵ, in words” value [3] was “No binding” and the “Binding to 14-3-3γ, in words” value [4] was “micromolar binding affinity; also recorded: highest affinities, yet in a micromolar range”. The “Binding to 14-3-3 isoform θ, in words” value [5] was “weakest binding”, the “Binding to 14-3-3 isoform σ, in words” value [6] was “No binding” and the “Binding to 14-3-3 isoform η, in words” value [7] was “highest affinities, yet in a micromolar range”.

B1: pS910/pS935 (peptide)
peptide: fluorescein-KKSN[pS]ISVGEFYRDAVLQRCSPNLQRHSN[pS]LGPIF
notes: LRRK2-derived 35-mer covering S910 and S935, phosphorylated at both; source: synthetic peptide (Peps4LS GmbH)
With B1 the Kd [8] was 12.4 nM, the Kd [9] was 4.8 nM and the Kd [10] was 60.6 nM. For the same molecule, the Kd [11] was 4.8 nM, the Kd [12] was 21.1 nM and the Kd [13] was 9.5 nM.

B2: Q930R/pS935 (peptide)
peptide: fluorescein-RCSPNLRRHSN[pS]LGPIFDH
notes: LRRK2-derived peptide with the possible pathogenic mutation Q930R, phosphorylated at S935; source: synthetic peptide (Peps4LS GmbH)
Work on B2 yielded a Kd [8] of 48.5 nM, a Kd [9] of 23.9 nM and a Kd [10] of 350 nM. The Kd [11] was 13.3 nM, the Kd [12] was 29.5 nM and the Kd [13] was 73.1 nM.
